Source: the supplement of paper PMC6757056
± gives the standard deviation of the averaged measurements.

B1: library; a variant is named by its letters at N, in order (parent)
chain: GCUGUCACCGGUGUAUUACCCUAGUGGUCGACCGGUCUGAUGAGUCUNNNNNNAGACGAAACAGC

Legend:
hypoxanthine [1] = variants of: B1; experiment: normalized RNA/DNA level with ligand (relative to sTRSVctl = 100) (log10 (% of sTRSVctl)); ligand: hypoxanthine (xanthine aptamer); higher = less ribozyme self-cleavage, higher mRNA level; conditions: ligand concentration (+) RNA-Seq: 5 mM, HEK293T, reporter: mCherry (pCS4076), ligand present: yes
In short: (§1)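 Ribozyme switch library plasmids linked to reporters were introduced into HEK293T cells at 4 µg per 6-well well, with ligand, if any, added 1 h before. Total RNA was extracted with EDTA 72 h later, reverse-transcribed, amplified, barcoded and sequenced. RNA level was computed from RNA over DNA reads relative to a spiked-in non-cleaving sequence or the top sequences, then scaled and log-transformed. The top set was 25 sequences, values were ×100 and log10, and the cutoff was ≥100 DNA reads.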

hypoxanthine [2] = variants of: B1; experiment: normalized RNA/DNA level without ligand (relative to sTRSVctl = 100) (log10 (% of sTRSVctl)); ligand: hypoxanthine (xanthine aptamer); higher = less ribozyme self-cleavage, higher mRNA level; conditions: HEK293T, reporter: mCherry (pCS4076), ligand present: no
In short: as §1

## GCUGUCACCGGUGUAUUACCCUAGUGGUCGACCGGUCUGAUGAGUCUAUGCGCAGACGAAACAGC [AUGCGC]
Hypoxanthine [1]
  normalized RNA/DNA level with ligand (log10): 1.93 ± 0.051
Hypoxanthine [2]
  normalized RNA/DNA level without ligand (log10): 1.73 ± 0.031

## GCUGUCACCGGUGUAUUACCCUAGUGGUCGACCGGUCUGAUGAGUCUGUGAGUAGACGAAACAGC [GUGAGU]
Hypoxanthine [1]
  normalized RNA/DNA level with ligand (log10): 1.94 ± 0.028
Hypoxanthine [2]
  normalized RNA/DNA level without ligand (log10): 1.639 ± 0.0057

## GCUGUCACCGGUGUAUUACCCUAGUGGUCGACCGGUCUGAUGAGUCUCUGAUGAGACGAAACAGC [CUGAUG]
Hypoxanthine [1]
  normalized RNA/DNA level with ligand (log10): 1.936 ± 0.0068
Hypoxanthine [2]
  normalized RNA/DNA level without ligand (log10): 1.646 ± 0.0062

## GCUGUCACCGGUGUAUUACCCUAGUGGUCGACCGGUCUGAUGAGUCUCUGAUCAGACGAAACAGC [CUGAUC]
Hypoxanthine [1]
  normalized RNA/DNA level with ligand (log10): 1.98 ± 0.035
Hypoxanthine [2]
  normalized RNA/DNA level without ligand (log10): 1.949 ± 0.019

## GCUGUCACCGGUGUAUUACCCUAGUGGUCGACCGGUCUGAUGAGUCUCUGAUUAGACGAAACAGC [CUGAUU]
Hypoxanthine [1]
  normalized RNA/DNA level with ligand (log10): 1.94 ± 0.096
Hypoxanthine [2]
  normalized RNA/DNA level without ligand (log10): 1.87 ± 0.031

## GCUGUCACCGGUGUAUUACCCUAGUGGUCGACCGGUCUGAUGAGUCUCUGAGUAGACGAAACAGC [CUGAGU]
Hypoxanthine [1]
  normalized RNA/DNA level with ligand (log10): 1.94 ± 0.073
Hypoxanthine [2]
  normalized RNA/DNA level without ligand (log10): 1.839 ± 0.0049

## GCUGUCACCGGUGUAUUACCCUAGUGGUCGACCGGUCUGAUGAGUCUGUGCCAAGACGAAACAGC [GUGCCA]
Hypoxanthine [1]
  normalized RNA/DNA level with ligand (log10): 1.93 ± 0.021
Hypoxanthine [2]
  normalized RNA/DNA level without ligand (log10): 1.81 ± 0.035

## GCUGUCACCGGUGUAUUACCCUAGUGGUCGACCGGUCUGAUGAGUCUGUGCCUAGACGAAACAGC [GUGCCU]
Hypoxanthine [1]
  normalized RNA/DNA level with ligand (log10): 1.98 ± 0.042
Hypoxanthine [2]
  normalized RNA/DNA level without ligand (log10): 1.891 ± 0.0069

## GCUGUCACCGGUGUAUUACCCUAGUGGUCGACCGGUCUGAUGAGUCUGUGCCCAGACGAAACAGC [GUGCCC]
Hypoxanthine [1]
  normalized RNA/DNA level with ligand (log10): 1.93 ± 0.027
Hypoxanthine [2]
  normalized RNA/DNA level without ligand (log10): 1.82 ± 0.049

## GCUGUCACCGGUGUAUUACCCUAGUGGUCGACCGGUCUGAUGAGUCUUUGAGUAGACGAAACAGC [UUGAGU]
Hypoxanthine [1]
  normalized RNA/DNA level with ligand (log10): 1.92 ± 0.026
Hypoxanthine [2]
  normalized RNA/DNA level without ligand (log10): 1.75 ± 0.026

## GCUGUCACCGGUGUAUUACCCUAGUGGUCGACCGGUCUGAUGAGUCUAUGAGUAGACGAAACAGC [AUGAGU]
Hypoxanthine [1]
  normalized RNA/DNA level with ligand (log10): 1.87 ± 0.026
Hypoxanthine [2]
  normalized RNA/DNA level without ligand (log10): 1.44 ± 0.11

## GCUGUCACCGGUGUAUUACCCUAGUGGUCGACCGGUCUGAUGAGUCUGUGAUUAGACGAAACAGC [GUGAUU]
Hypoxanthine [1]
  normalized RNA/DNA level with ligand (log10): 1.92 ± 0.0091
Hypoxanthine [2]
  normalized RNA/DNA level without ligand (log10): 1.847 ± 0.0028

## GCUGUCACCGGUGUAUUACCCUAGUGGUCGACCGGUCUGAUGAGUCUGUGAUAAGACGAAACAGC [GUGAUA]
Hypoxanthine [1]
  normalized RNA/DNA level with ligand (log10): 1.89 ± 0.073
Hypoxanthine [2]
  normalized RNA/DNA level without ligand (log10): 1.75 ± 0.027

## GCUGUCACCGGUGUAUUACCCUAGUGGUCGACCGGUCUGAUGAGUCUGUGAUCAGACGAAACAGC [GUGAUC]
Hypoxanthine [1]
  normalized RNA/DNA level with ligand (log10): 1.93 ± 0.036
Hypoxanthine [2]
  normalized RNA/DNA level without ligand (log10): 1.54 ± 0.13

## GCUGUCACCGGUGUAUUACCCUAGUGGUCGACCGGUCUGAUGAGUCUUUGCCCAGACGAAACAGC [UUGCCC]
Hypoxanthine [1]
  normalized RNA/DNA level with ligand (log10): 1.99 ± 0.025
Hypoxanthine [2]
  normalized RNA/DNA level without ligand (log10): 1.997 ± 0.0042

## GCUGUCACCGGUGUAUUACCCUAGUGGUCGACCGGUCUGAUGAGUCUUUGCCUAGACGAAACAGC [UUGCCU]
Hypoxanthine [1]
  normalized RNA/DNA level with ligand (log10): 2.007 ± 0.018
Hypoxanthine [2]
  normalized RNA/DNA level without ligand (log10): 1.99 ± 0.057

## GCUGUCACCGGUGUAUUACCCUAGUGGUCGACCGGUCUGAUGAGUCUUUGCCAAGACGAAACAGC [UUGCCA]
Hypoxanthine [1]
  normalized RNA/DNA level with ligand (log10): 1.95 ± 0.017
Hypoxanthine [2]
  normalized RNA/DNA level without ligand (log10): 1.94 ± 0.028

## GCUGUCACCGGUGUAUUACCCUAGUGGUCGACCGGUCUGAUGAGUCUCUGCCCAGACGAAACAGC [CUGCCC]
Hypoxanthine [1]
  normalized RNA/DNA level with ligand (log10): 1.99 ± 0.039
Hypoxanthine [2]
  normalized RNA/DNA level without ligand (log10): 1.971 ± 0.0093

## GCUGUCACCGGUGUAUUACCCUAGUGGUCGACCGGUCUGAUGAGUCUCUGCCAAGACGAAACAGC [CUGCCA]
Hypoxanthine [1]
  normalized RNA/DNA level with ligand (log10): 2.03 ± 0.043
Hypoxanthine [2]
  normalized RNA/DNA level without ligand (log10): 1.886 ± 0.011

## GCUGUCACCGGUGUAUUACCCUAGUGGUCGACCGGUCUGAUGAGUCUCUGCCUAGACGAAACAGC [CUGCCU]
Hypoxanthine [1]
  normalized RNA/DNA level with ligand (log10): 1.95 ± 0.097
Hypoxanthine [2]
  normalized RNA/DNA level without ligand (log10): 1.92 ± 0.036

## GCUGUCACCGGUGUAUUACCCUAGUGGUCGACCGGUCUGAUGAGUCUCUGCCGAGACGAAACAGC [CUGCCG]
Hypoxanthine [1]
  normalized RNA/DNA level with ligand (log10): 1.96 ± 0.082
Hypoxanthine [2]
  normalized RNA/DNA level without ligand (log10): 1.8 ± 0.026
